We go through three molecules from patent US20230211007A1 (published 2023).

A word on the Kd: it is the constant that tells how readily two partners part at equilibrium. Low values mean higher affinity, high ones lower affinity.

Residue numbers refer to the chain shown, from its start.

In the test the target is T1, CD20 (UniProt P11836 142-188, limits assumed).
T1 construct: Bought reagent
T1 chain (looked up): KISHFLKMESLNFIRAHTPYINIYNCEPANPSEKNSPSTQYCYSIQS
Description: BLI (Octet), antibody on Pro A probe, CD20 25-200 nM in solution. As to the method: Antibody samples were dissolved in PBS with a working concentration of 10 μg/mL; CD20 (Beijing SinoBiological Co., Ltd.) was dissolved in PBS and gradiently diluted to concentrations of 25 nM, 50 nM, 75 nM, 100 nM, 150 nM, 200 nM respectively. The working volume was 200 μL.
The data diagram was fitted by OCTET system and data-processing software, and the intermolecular interaction between the antibody and the CD20 was calculated by the software, and shown in KD value.
For orientation: In BLI a coated tip is dipped into the sample, and binding shifts an interference pattern.

B1: WT Rituximab (antibody, human IgG1, kappa)
heavy: not shown
light: QIVLSQSPAILSASPGEKVTMTCRASSSVSYIHWFQQKPGSSPKPWIYATSNLASGVPVRFSGSGSGTSYSLTISRVEAEDAATYYCQQWTSNPPTFGGGTKLEIKRTVAAPSVFIFPPSDEQLKSGTASVVCLLNNFYPREAKVQWKVDNALQSGNSQESVTEQDSKDSTYSLSSTLTLSKADYEKHKVYACEVTHQGLSSPVTKSFNRGEC
notes: also called anti-CD20 wild-type antibody
In the case of B1, the dissociation constant Kd came out at 5.35 nM.

B2: anti-CD20 antibody mutant 124C (antibody, human IgG1, kappa)
heavy: not shown
light: B1 light with Q123C
Turning to B2, the Kd was 8.97 nM.

B3: anti-CD20 antibody mutant 166C (antibody, human IgG1, kappa)
heavy: not shown
light: B1 light with Q165C
B3: the affinity, expressed as Kd, was 4.86 nM.
